Here are results for one substance from patent US20250207095A1.

The target in the assay is 4-1BB (UniProt Q07011). Kind of assay: cell-based or functional assay.
Sequence of 4-1BB (Q07011 24-255 limits assumed): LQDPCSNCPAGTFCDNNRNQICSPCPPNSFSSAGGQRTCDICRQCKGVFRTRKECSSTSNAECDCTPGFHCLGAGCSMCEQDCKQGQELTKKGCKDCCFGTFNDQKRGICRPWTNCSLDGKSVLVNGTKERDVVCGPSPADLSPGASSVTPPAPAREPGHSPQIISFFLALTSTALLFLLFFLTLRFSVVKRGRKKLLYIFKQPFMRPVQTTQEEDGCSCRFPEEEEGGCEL

As to “4-1BB ligand (from UniProt P41273 1-254)”, the expansion of TRAC-1XX-iT cells from D35 to D42 was determined as 30 fold.
